The source of these data is patent publication US20060140968A1 (GREEN PEPTIDE, published 2006).

The chains are these.
T1: HLA-A0201 (human, UniProt P04439 25-302 at identity 0.94))
T1 MHC heavy: not shown

T2: HLA-A2402 (human, UniProt P04439-2 25-302 at identity 0.92))
T2 MHC heavy: not shown

B1: SART-3 peptide "386-394" (peptide)
peptide: LLAMERHGV
B2: SART-3 peptide "309-317" (peptide)
peptide: RLAEYQAYI
B3: SART-3 peptide "249-257" (peptide)
peptide: SLFRRQLAI
B4: SART-3 peptide "152-160" (peptide)
peptide: WLHDEISMA
B5: SART-3 peptide "302-310" (peptide)
peptide: LLQAEAPRL
B6: SART-3 peptide "284-292" Asn-Tyr-Asn-Lys-Ala-Leu-Gln-Gln-Leu (peptide)
peptide: NYNKALQQL
B7: SART-3 peptide "172-181" Leu-Phe-Glu-Lys-Ala-Val-Lys-Asp-Tyr-Ile (peptide)
peptide: LFEKAVKDYI
B8: SART-3 peptide "426-434" Asp-Tyr-Leu-Arg-Arg-Arg-Val-Asp-Phe (peptide)
peptide: DYLRRRVDF
B9: SART-3 peptide "109-118" Val-Tyr-Asp-Tyr-Asn-Cys-His-Val-Asp-Leu (peptide)
peptide: VYDYNCHVDL
B10: SART-3 peptide "448-456" Ala-Phe-Thr-Arg-Ala-Leu-Glu-Tyr-Leu (peptide)
peptide: AFTRALEYL
B11: SART-3 peptide "416-425" (peptide)
peptide: DYVEIWQAYL
B12: SART-3 peptide "315-323" Ala-Tyr-Ile-Asp-Phe-Glu-Met-Lys-Ile (peptide)
peptide: AYIDFEMKI

The target of one assay is T1, HLA-A0201. Nature of the assay: cell-based or functional assay.
As for B1, the “IFN-γ in the supernatant (pg/ml) produced by OK-CTL on HLA-A0201-positive T2 cells pulsed with 10 µM peptide, value with no peptide subtracted” value worked out at 122 pg/mL.
The same measure, in the same setting: the result for B2 reads 231 pg/mL; that for B3, 209 pg/mL.
The same measure, in the same setting: the value for B4 was 162 pg/mL; that for B5 was 190 pg/mL.

A further assay addresses T2, HLA-A2402. In words: cell-based or functional assay.
Consider B6, for which the “IFN-γ in the supernatant (pg/ml) produced by KE-4CTL on HLA-A2402-transfected VA-13 cells pulsed with 10 µM peptide (no peptide: 677)” value is 794 pg/mL.
Still for that read-out and setting: the value for B7 was 830 pg/mL; that for B8 was 833 pg/mL.
Consider B9, for which the “IFN-γ in the supernatant (pg/ml) produced by KE-4CTL on HLA-A2402-transfected VA-13 cells pulsed with 10 µM peptide (no peptide: 677)” value is 928 pg/mL.
Still for that read-out and setting: the result for B10 reads 754 pg/mL.
Still for that read-out and setting: the value for B11 was 731 pg/mL; that for B12 was 880 pg/mL.
